This is an account of results in paper PMC5387054, “Zinc-Dependent Transcriptional Regulation in Paracoccus denitrificans”.

The target of series [1] is T1, Zur (Paracoccus denitrificans) (UniProt A1B9K9).
T1 sequence: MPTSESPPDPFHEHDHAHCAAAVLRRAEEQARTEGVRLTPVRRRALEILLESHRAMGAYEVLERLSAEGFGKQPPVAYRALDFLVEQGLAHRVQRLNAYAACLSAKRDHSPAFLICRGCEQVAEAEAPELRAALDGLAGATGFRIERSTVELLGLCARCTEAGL
As to the kind of experiment: EMSA. The settings on record: EMSA: 10 mM Tris pH 8.0, 10 mM NaCl, 100 mM K-glutamate, 50 mM KCl, 1 mM DTT, 1.07 ug/ml BSA, 0.1 uM DNA, 0-20 uM Zur, 25 uM ZnCl2, 100 uM EDTA; 30 min room …. Background: A gel shift assay detects complexes by their altered migration in electrophoresis.

Series [2] concerns the target Paracoccus denitrificans zinc uptake regulator (Zur) (Paracoccus denitrificans PD1222). As to the kind of experiment: SEC; Factor Xa cleavage reaction mixture applied to a Hi-Prep Sephacryl S-100 HR column, 20 mM Tris pH 8.0, 150 mM NaCl, calibrated with proteins of 6.5 to 75 kDa. A general note: In gel filtration, larger molecules generally elute earlier.
Another series concerns the target T2, Zur (Paracoccus denitrificans, UniProt A1B9K9 1-164).
T2 sequence: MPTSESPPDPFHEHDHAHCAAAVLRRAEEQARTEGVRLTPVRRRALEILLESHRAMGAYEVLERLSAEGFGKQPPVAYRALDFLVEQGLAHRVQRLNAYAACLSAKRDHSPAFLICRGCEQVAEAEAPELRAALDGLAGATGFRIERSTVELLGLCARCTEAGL
Kind of series: competition; probe zur/znuA 0.1 uM; 10 uM Zur, 25 uM Zn2+, 100 uM EDTA; 5 uM competitor; shift disrupted, not fully displaced; EMSA: 10 mM Tris pH 8.0, 10 mM NaCl, 100 mM K-glutamate, 50 mM KCl, 1 mM DTT, 1.07 ug/ml BSA, 0.1 uM DNA, 0-20 uM Zur, 25 uM ZnCl2, 100 uM EDTA; 30 min room temperature; 8% native PAGE at 4 C. Conditions: protein: recombinant; tags: MBP (pMAL-c5X) removed by Factor Xa; chain copies: 2; blunt.

For “AAGAGAGGGTTGAGCCTGCCCGGTAAAGGGCCGGGCGGGATGATCCGCCAGGCGCATGGGCGAAGCCCTCTTGCATCCCCGGGTGGGTAATATAATAACATAACAAAATCTCCGAGGATAACGCTCATGCTCTGCAAACTGCTCGCTT (double strand) [pden1341 promoter]”, the binding entry in series [1] is on record as “binds”.
“AATCACAAAACCGGCGCCTCGGCATTTCCCCGCTGATGCTTTGCCCTCTCGCCGCGGGTCCTGCGGCTTTTCGGACGACCGGCGCGGCATGGCTTGCCGTTCCGGTTTAGTAATGTAATAACATCACCAAAATATCGAGTCCGCTATCCAGTGATGCCCAGAACC (double strand) [aztA promoter]”: the binding entry in series [1] is reported as “binds”.
On to “CGGCAAGGACAAGGGAAGAAGGTCGGATCATGGCGAGACTCACTTGCGGAAACGCCAAGGTTATTTATGTTATATCGTAACCCGTCAAGCAAAAATGTAACGATATAACATCATGCCCACTTCGGAATCCCCGCCTGACCCGTTTCACG (double strand) [zur/znuA promoter (149 bp)]”, for which the binding result in series [1] is “binds”.
In the case of “GCCGCCCGCTGACCAGATTTCCGCCGGGACCAGCCTGCGCCCGTCCCGGCGCCCTCCCCCGAACCCCATCAAGGAGACTTTCCATGCTCAGACATCTCGCGGGCGCCAGCGCCCTTGCCCTGACCTT (double strand) [aztD promoter (negative control, 128 bp)]”, the binding result in series [1] is given as “binds more weakly”.
Turning to “Paracoccus denitrificans zinc uptake regulator (Zur) (natural protein)”, in series [2], the stoichiometry N – broadly, the number of molecules, sites or subunits per partner or assembly – is 2.

B1: specific competitor (zur/znuA), 59 bp (dsDNA)
DNA 1: GGGCATGATGTTATATCGTTACATTTTTGCTTGACGGGTTACGATATAACATAAATAAC
DNA 2: GTTATTTATGTTATATCGTAACCCGTCAAGCAAAAATGTAACGATATAACATCATGCCC
As to B1, in the series with Zur, the binding result was “binds”.
